One block for each binder: values may come before it.
How the values were obtained:
[1] = biological target: T1, 4H310-AA; test: two-hybrid library CCmax; conditions: mean of both orientations;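 also: natural log of median RNA to DNA barcode read ratio; higher means stronger binding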
T1 chain: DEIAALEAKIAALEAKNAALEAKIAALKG

[2] = biological target: T2, 4H458-AA; test: two-hybrid library CCmax; conditions: mean of both orientations;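 also: natural log of median RNA to DNA barcode read ratio; higher means stronger binding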
T2 chain: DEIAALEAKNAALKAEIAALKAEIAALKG

[3] = biological target: T3, 4H745-AA; test: two-hybrid library CCmax; conditions: mean of both orientations;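 also: natural log of median RNA to DNA barcode read ratio; higher means stronger binding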
T3 chain: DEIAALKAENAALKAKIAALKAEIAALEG

[4] = biological target: T4, 4H3009-AA; test: two-hybrid library CCmax;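 also: natural log of median RNA to DNA barcode read ratio; higher means stronger binding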
T4 chain: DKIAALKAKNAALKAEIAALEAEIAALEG

[5] = biological target: T5, 4H891-AA; test: two-hybrid library CCmax;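 also: natural log of median RNA to DNA barcode read ratio; higher means stronger binding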
T5 chain: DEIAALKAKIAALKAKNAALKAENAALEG

[6] = biological target: T6, 4H3165-AA; test: two-hybrid library CCmax; conditions: mean of both orientations;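 also: natural log of median RNA to DNA barcode read ratio; higher means stronger binding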
T6 chain: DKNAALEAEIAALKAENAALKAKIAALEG

[7] = biological target: T7, 4H3753-AA; test: two-hybrid library CCmax; conditions: mean of both orientations
T7 chain: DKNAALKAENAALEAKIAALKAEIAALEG

[8] = biological target: T8, 4H629-AA; test: two-hybrid library CCmax; conditions: mean of both orientations
T8 chain: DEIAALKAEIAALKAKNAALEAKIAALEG

[9] = biological target: T9, 4H909-AA; test: two-hybrid library CCmax; conditions: mean of both orientations
T9 chain: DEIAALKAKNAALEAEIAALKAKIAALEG

[10] = biological target: T10, 4H710-AA; test: two-hybrid library CCmax; conditions: mean of both orientations
T10 chain: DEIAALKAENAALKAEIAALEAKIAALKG

[11] = biological target: T11, 4H930-AA; test: two-hybrid library CCmax; conditions: mean of both orientations
T11 chain: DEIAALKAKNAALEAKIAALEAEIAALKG

[12] = biological target: T12, 4H3395-AA; test: two-hybrid library CCmax
T12 chain: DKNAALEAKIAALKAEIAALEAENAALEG

[13] = biological target: T13, 4H3120-AA; test: two-hybrid library CCmax; conditions: mean of both orientations
T13 chain: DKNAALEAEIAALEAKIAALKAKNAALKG

[14] = biological target: T14, 4H3697-AA; test: two-hybrid library CCmax; conditions: mean of both orientations
T14 chain: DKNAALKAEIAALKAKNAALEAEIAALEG

[15] = biological target: T15, 4H94-AA; test: two-hybrid library CCmax; conditions: mean of both orientations
T15 chain: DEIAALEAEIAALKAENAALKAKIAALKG

[16] = biological target: T16, 4H536-AA; test: two-hybrid library CCmax; conditions: mean of both orientations
T16 chain: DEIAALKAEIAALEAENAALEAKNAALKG

[17] = biological target: T17, 4H570-AA; test: two-hybrid library CCmax; conditions: mean of both orientations
T17 chain: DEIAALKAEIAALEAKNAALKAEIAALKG

[18] = biological target: T18, 4H3016-AA; test: two-hybrid library CCmax; conditions: mean of both orientations
T18 chain: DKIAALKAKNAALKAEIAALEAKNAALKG

[19] = biological target: T19, 4H797-AA; test: two-hybrid library CCmax; conditions: mean of both orientations
T19 chain: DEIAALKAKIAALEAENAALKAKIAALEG

[20] = biological target: T20, 4H3410-AA; test: two-hybrid library CCmax; conditions: mean of both orientations
T20 chain: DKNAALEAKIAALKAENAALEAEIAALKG

[21] = biological target: T21, 4H485-AA; test: two-hybrid library CCmax; conditions: mean of both orientations
T21 chain: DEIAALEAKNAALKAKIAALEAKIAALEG

[22] = biological target: T22, 4H3865-AA; test: two-hybrid library CCmax; conditions: mean of both orientations
T22 chain: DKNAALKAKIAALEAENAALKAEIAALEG

[23] = biological target: T23, 4H850-AA; test: two-hybrid library CCmax; conditions: mean of both orientations
T23 chain: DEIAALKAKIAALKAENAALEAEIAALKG

[24] = biological target: T24, 4H3590-AA; test: two-hybrid library CCmax; conditions: mean of both orientations
T24 chain: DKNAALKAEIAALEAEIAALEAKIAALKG

[25] = biological target: T25, 4H3130-AA; test: two-hybrid library CCmax; conditions: mean of both orientations
T25 chain: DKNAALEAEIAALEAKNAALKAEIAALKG

[26] = biological target: T26, 4H3381-AA; test: two-hybrid library CCmax; conditions: mean of both orientations
T26 chain: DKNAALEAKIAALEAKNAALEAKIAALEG

[27] = biological target: T27, APC9096-AA; test: two-hybrid library CCmax
T27 chain: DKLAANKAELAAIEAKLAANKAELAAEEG

[28] = biological target: T28, APC9319-AA; test: two-hybrid library CCmax; conditions: mean of both orientations
T28 chain: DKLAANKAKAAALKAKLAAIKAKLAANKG

[29] = biological target: T29, 4H3718-AA; test: two-hybrid library CCmax; conditions: mean of both orientations
T29 chain: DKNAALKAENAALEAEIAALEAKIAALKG

[30] = biological target: T30, 4H3631-AA; test: two-hybrid library CCmax; conditions: mean of both orientations
T30 chain: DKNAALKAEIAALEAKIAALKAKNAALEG

[31] = biological target: T31, 4H982-AA; test: two-hybrid library CCmax; conditions: mean of both orientations
T31 chain: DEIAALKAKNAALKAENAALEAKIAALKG

[32] = biological target: T32, 4H3588-AA; test: two-hybrid library CCmax; conditions: mean of both orientations
T32 chain: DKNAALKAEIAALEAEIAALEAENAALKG

[33] = biological target: T33, 4H697-AA; test: two-hybrid library CCmax; conditions: mean of both orientations
T33 chain: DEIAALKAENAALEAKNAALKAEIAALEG

[34] = biological target: T34, 4H384-AA; test: two-hybrid library CCmax; conditions: mean of both orientations
T34 chain: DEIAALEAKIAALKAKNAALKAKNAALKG

[35] = biological target: T35, 4H3606-AA; test: two-hybrid library CCmax; conditions: mean of both orientations
T35 chain: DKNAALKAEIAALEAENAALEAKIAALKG

[36] = biological target: T36, 4H3413-AA; test: two-hybrid library CCmax
T36 chain: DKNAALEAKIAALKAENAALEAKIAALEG

[37] = biological target: T37, 4H949-bN; test: two-hybrid library CCNG1
T37 chain: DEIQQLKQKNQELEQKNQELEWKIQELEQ

interaction score [1]: -0.567
interaction score [2]: 0.956
interaction score [3]: 1.77
interaction score [4]: 2.25
interaction score [5]: -1.57
interaction score [6]: -1.43
interaction score [7]: 1.09
interaction score [8]: 1.67
interaction score [9]: 0.523
interaction score [10]: 1.94
interaction score [11]: -0.0462
interaction score [12]: -1.73
interaction score [13]: -0.531
interaction score [14]: 0.129
interaction score [15]: -0.794
interaction score [16]: -1.35
interaction score [17]: -0.427
interaction score [18]: -1.16
interaction score [19]: -1.65
interaction score [20]: 0.321
interaction score [21]: 1.22
interaction score [22]: -1.6
interaction score [23]: 1.63
interaction score [24]: 0.389
interaction score [25]: -0.967
interaction score [26]: -1.54
Binder: DKIAALKAKNAALKAEIAALEAEIAALEG [4H3009-AA]

interaction score [27]: -2.06
interaction score [28]: -1.81
Binder: DKLAANKAELAAIEAKLAANKAELAAEEG [APC9096-AA]

interaction score [29]: -1.38
interaction score [30]: -1.19
interaction score [31]: -1.39
interaction score [14]: -0.722
interaction score [32]: -1.34
interaction score [22]: 0.0208
interaction score [33]: -0.828
interaction score [34]: -0.506
interaction score [35]: 1.14
interaction score [36]: 0.362
Binder: DKNAALEAKIAALKAENAALEAKIAALEG [4H3413-AA]

interaction score [37]: -0.614
Binder: DEIQQLKQKNQELEQKNQELEWKIQELEQ [4H949-bN]
